Reference: PMC9352680, “A comprehensive thermodynamic model for RNA binding by the Saccharomyces cerevisiae Pumilio protein PUF4”

T1: PUF4 RNA-binding domain (Saccharomyces cerevisiae, UniProt P25339 537-888)
T1 sequence: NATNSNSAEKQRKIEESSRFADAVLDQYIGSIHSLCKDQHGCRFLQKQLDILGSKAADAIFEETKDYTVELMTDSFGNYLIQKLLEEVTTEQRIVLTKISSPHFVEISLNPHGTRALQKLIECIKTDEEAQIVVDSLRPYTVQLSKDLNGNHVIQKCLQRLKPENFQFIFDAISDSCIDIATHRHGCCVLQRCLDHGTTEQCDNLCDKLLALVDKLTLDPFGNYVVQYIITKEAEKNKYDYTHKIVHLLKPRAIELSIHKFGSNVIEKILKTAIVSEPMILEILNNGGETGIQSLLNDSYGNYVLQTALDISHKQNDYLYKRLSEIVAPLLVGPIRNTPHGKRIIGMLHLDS

B1: Ib_S2_P5E.1_K5.1_C5.1_H5.1_[T1G]_[G2C]_A5.1_F5.1_T5.1 (ssRNA)
RNA: UUUGAUUAAUAUGAUAUCGUUCUUUCUGCUAUUAUUAUUCUUUCUCGAUAUCAUAUUAAUCUUU
B2: Ib_S2_P5E.1_K5.1_C5.1_H5.1_[T1C]_[T3C]_A5.1_F5.1_T5.1 (ssRNA)
RNA: UUUGAUUAAUAUGAUAUCGUUCUUUCUCGCAUUAUUAUUCUUUCUCGAUAUCAUAUUAAUCUUU
B3: Ib_S2_P5E.1_K5.1_C5.1_H5.1_[T3G]_[A4C]_A5.1_F5.1_T5.1 (ssRNA)
RNA: UUUGAUUAAUAUGAUAUCGUUCUUUCUUGGCUUAUUAUUCUUUCUCGAUAUCAUAUUAAUCUUU
B4: Ia_S2_P5E.1_K5.1_C5.1_H5.1_[T1A]_A5.1_F5.1_T5.1 (ssRNA)
RNA: UUUGAUUAAUAUGAUAUCGUUCUUUCUAGUAUUAUUAUUCUUUCUCGAUAUCAUAUUAAUCUUU
B5: Ia_S2_P5E.1_K5.1_C5.1_H5.1_[G2C]_A5.1_F5.1_T5.1 (ssRNA)
RNA: UUUGAUUAAUAUGAUAUCGUUCUUUCUUCUAUUAUUAUUCUUUCUCGAUAUCAUAUUAAUCUUU
B6: Ib_S2_P5E.1_K5.1_C5.1_H5.1_[G2A]_A5.1_[T6C]_F5.1_T5.1 (ssRNA)
RNA: UUUGAUUAAUAUGAUAUCGUUCUUUCUUAUAUCAUUAUUCUUUCUCGAUAUCAUAUUAAUCUUU
B7: Ib_S2_P5E.1_K5.1_C5.1_H5.1_[G2T]_A5.1_[A7G]_F5.1_T5.1 (ssRNA)
RNA: UUUGAUUAAUAUGAUAUCGUUCUUUCUUUUAUUGUUAUUCUUUCUCGAUAUCAUAUUAAUCUUU
B8: Ib_S2_P5E.1_K5.1_C5.1_H5.1_[G2A]_A5.1_[T5G]_F5.1_T5.1 (ssRNA)
RNA: UUUGAUUAAUAUGAUAUCGUUCUUUCUUAUAGUAUUAUUCUUUCUCGAUAUCAUAUUAAUCUUU
B9: Ib_S2_P5E.1_K5.1_C5.1_H5.1_[A4C]_A5.1_[T6A]_F5.1_T5.1 (ssRNA)
RNA: UUUGAUUAAUAUGAUAUCGUUCUUUCUUGUCUAAUUAUUCUUUCUCGAUAUCAUAUUAAUCUUU
B10: Ib_S2_P5E.1_K5.1_C5.1_H5.1_[G2C]_A5.1_[T6A]_F5.1_T5.1 (ssRNA)
RNA: UUUGAUUAAUAUGAUAUCGUUCUUUCUUCUAUAAUUAUUCUUUCUCGAUAUCAUAUUAAUCUUU
B11: Ib_S2_P5E.1_K5.1_C5.1_H5.1_[G2T]_A5.1_[T6A]_F5.1_T5.1 (ssRNA)
RNA: UUUGAUUAAUAUGAUAUCGUUCUUUCUUUUAUAAUUAUUCUUUCUCGAUAUCAUAUUAAUCUUU
B12: Ib_S2_P5E.1_K5.1_C5.1_H5.1_[G2T]_A5.1_[T5C]_F5.1_T5.1 (ssRNA)
RNA: UUUGAUUAAUAUGAUAUCGUUCUUUCUUUUACUAUUAUUCUUUCUCGAUAUCAUAUUAAUCUUU
B13: Ib_S2_P5E.1_K5.1_C5.1_H5.1_[T3C]_A5.1_[A7T]_F5.1_T5.1 (ssRNA)
RNA: UUUGAUUAAUAUGAUAUCGUUCUUUCUUGCAUUUUUAUUCUUUCUCGAUAUCAUAUUAAUCUUU
B14: Ib_S2_P5E.1_K5.1_C5.1_H5.1_[A4C]_A5.1_[T5A]_F5.1_T5.1 (ssRNA)
RNA: UUUGAUUAAUAUGAUAUCGUUCUUUCUUGUCAUAUUAUUCUUUCUCGAUAUCAUAUUAAUCUUU
B15: Ia_S2_P5E.1_K5.1_C5.1_H5.1_[T1C]_A5.1_F5.1_T5.1 (ssRNA)
RNA: UUUGAUUAAUAUGAUAUCGUUCUUUCUCGUAUUAUUAUUCUUUCUCGAUAUCAUAUUAAUCUUU
B16: Ib_S2_P5E.1_K5.1_C5.1_H5.1_[A4T]_A5.1_[T5C]_F5.1_T5.1 (ssRNA)
RNA: UUUGAUUAAUAUGAUAUCGUUCUUUCUUGUUCUAUUAUUCUUUCUCGAUAUCAUAUUAAUCUUU
B17: Ib_S2_P5E.1_K5.1_C5.1_H5.1_[G2C]_A5.1_[T5A]_F5.1_T5.1 (ssRNA)
RNA: UUUGAUUAAUAUGAUAUCGUUCUUUCUUCUAAUAUUAUUCUUUCUCGAUAUCAUAUUAAUCUUU
B18: Ib_S2_P5E.1_K5.1_C5.1_H5.1_[T3C]_A5.1_[T6C]_F5.1_T5.1 (ssRNA)
RNA: UUUGAUUAAUAUGAUAUCGUUCUUUCUUGCAUCAUUAUUCUUUCUCGAUAUCAUAUUAAUCUUU
B19: Ib_S2_P5E.1_K5.1_C5.1_H5.1_[T1A]_[G2T]_A5.1_F5.1_T5.1 (ssRNA)
RNA: UUUGAUUAAUAUGAUAUCGUUCUUUCUAUUAUUAUUAUUCUUUCUCGAUAUCAUAUUAAUCUUU
B20: Ib_S2_P5E.1_K5.1_C5.1_H5.1_[A4T]_A5.1_[T5G]_F5.1_T5.1 (ssRNA)
RNA: UUUGAUUAAUAUGAUAUCGUUCUUUCUUGUUGUAUUAUUCUUUCUCGAUAUCAUAUUAAUCUUU
B21: Ib_S2_P5E.1_K5.1_C5.1_H5.1_[T1A]_A5.1_[T6C]_F5.1_T5.1 (ssRNA)
RNA: UUUGAUUAAUAUGAUAUCGUUCUUUCUAGUAUCAUUAUUCUUUCUCGAUAUCAUAUUAAUCUUU
B22: Ib_S2_P5E.1_K5.1_C5.1_H5.1_[G2T]_[A4T]_A5.1_F5.1_T5.1 (ssRNA)
RNA: UUUGAUUAAUAUGAUAUCGUUCUUUCUUUUUUUAUUAUUCUUUCUCGAUAUCAUAUUAAUCUUU
B23: Ib_S2_P5E.1_K5.1_C5.1_H5.1_[G2C]_[A4C]_A5.1_F5.1_T5.1 (ssRNA)
RNA: UUUGAUUAAUAUGAUAUCGUUCUUUCUUCUCUUAUUAUUCUUUCUCGAUAUCAUAUUAAUCUUU
B24: Ib_S2_P5E.1_K5.1_C5.1_H5.1_[T3C]_[A4C]_A5.1_F5.1_T5.1 (ssRNA)
RNA: UUUGAUUAAUAUGAUAUCGUUCUUUCUUGCCUUAUUAUUCUUUCUCGAUAUCAUAUUAAUCUUU
B25: Ib_S2_P5E.1_K5.1_C5.1_H5.1_[T3C]_A5.1_[A7G]_F5.1_T5.1 (ssRNA)
RNA: UUUGAUUAAUAUGAUAUCGUUCUUUCUUGCAUUGUUAUUCUUUCUCGAUAUCAUAUUAAUCUUU
B26: Ib_S2_P5E.1_K5.1_C5.1_H5.1_[A4C]_A5.1_[T5C]_F5.1_T5.1 (ssRNA)
RNA: UUUGAUUAAUAUGAUAUCGUUCUUUCUUGUCCUAUUAUUCUUUCUCGAUAUCAUAUUAAUCUUU
B27: Ib_S2_P5E.1_K5.1_C5.1_H5.1_[A4G]_A5.1_[T6A]_F5.1_T5.1 (ssRNA)
RNA: UUUGAUUAAUAUGAUAUCGUUCUUUCUUGUGUAAUUAUUCUUUCUCGAUAUCAUAUUAAUCUUU
B28: Ib_S2_P5E.1_K5.1_C5.1_H5.1_[T1A]_A5.1_[T5C]_F5.1_T5.1 (ssRNA)
RNA: UUUGAUUAAUAUGAUAUCGUUCUUUCUAGUACUAUUAUUCUUUCUCGAUAUCAUAUUAAUCUUU
B29: Ib_S2_P5E.1_K5.1_C5.1_H5.1_[T3C]_A5.1_[T5G]_F5.1_T5.1 (ssRNA)
RNA: UUUGAUUAAUAUGAUAUCGUUCUUUCUUGCAGUAUUAUUCUUUCUCGAUAUCAUAUUAAUCUUU
B30: Ib_S2_P5E.1_K5.1_C5.1_H5.1_[A4G]_A5.1_[T6C]_F5.1_T5.1 (ssRNA)
RNA: UUUGAUUAAUAUGAUAUCGUUCUUUCUUGUGUCAUUAUUCUUUCUCGAUAUCAUAUUAAUCUUU
B31: Ib_S2_P5E.1_K5.1_C5.1_H5.1_[T1A]_A5.1_[A7G]_F5.1_T5.1 (ssRNA)
RNA: UUUGAUUAAUAUGAUAUCGUUCUUUCUAGUAUUGUUAUUCUUUCUCGAUAUCAUAUUAAUCUUU
B32: Ib_S2_P5E.1_K5.1_C5.1_H5.1_[T1G]_[G2T]_A5.1_F5.1_T5.1 (ssRNA)
RNA: UUUGAUUAAUAUGAUAUCGUUCUUUCUGUUAUUAUUAUUCUUUCUCGAUAUCAUAUUAAUCUUU
B33: Ia_S2_P5E.1_K5.1_C5.1_H5.1_A5.1_F5.1_[A10T]_T5.1 (ssRNA)
RNA: UUUGAUUAAUAUGAUAUCGUUCUUUCUUGUAUUAUUUUUCUUUCUCGAUAUCAUAUUAAUCUUU
B34: Ib_S2_P5E.1_K5.1_C5.1_H5.1_[A4T]_A5.1_[T6C]_F5.1_T5.1 (ssRNA)
RNA: UUUGAUUAAUAUGAUAUCGUUCUUUCUUGUUUCAUUAUUCUUUCUCGAUAUCAUAUUAAUCUUU
B35: Ib_S2_P5E.1_K5.1_C5.1_H5.1_[T1C]_A5.1_[T5C]_F5.1_T5.1 (ssRNA)
RNA: UUUGAUUAAUAUGAUAUCGUUCUUUCUCGUACUAUUAUUCUUUCUCGAUAUCAUAUUAAUCUUU
B36: Ib_S2_P5E.1_K5.1_C5.1_H5.1_[T3C]_A5.1_[T5C]_F5.1_T5.1 (ssRNA)
RNA: UUUGAUUAAUAUGAUAUCGUUCUUUCUUGCACUAUUAUUCUUUCUCGAUAUCAUAUUAAUCUUU
B37: Ib_S2_P5E.1_K5.1_C5.1_H5.1_[G2T]_A5.1_[T6C]_F5.1_T5.1 (ssRNA)
RNA: UUUGAUUAAUAUGAUAUCGUUCUUUCUUUUAUCAUUAUUCUUUCUCGAUAUCAUAUUAAUCUUU
B38: Ib_S2_P5E.1_K5.1_C5.1_H5.1_[G2A]_[A4C]_A5.1_F5.1_T5.1 (ssRNA)
RNA: UUUGAUUAAUAUGAUAUCGUUCUUUCUUAUCUUAUUAUUCUUUCUCGAUAUCAUAUUAAUCUUU
B39: Ib_S2_P5E.1_K5.1_C5.1_H5.1_[T1A]_[G2C]_A5.1_F5.1_T5.1 (ssRNA)
RNA: UUUGAUUAAUAUGAUAUCGUUCUUUCUACUAUUAUUAUUCUUUCUCGAUAUCAUAUUAAUCUUU
B40: Ib_S2_P5E.1_K5.1_C5.1_H5.1_[G2C]_[A4G]_A5.1_F5.1_T5.1 (ssRNA)
RNA: UUUGAUUAAUAUGAUAUCGUUCUUUCUUCUGUUAUUAUUCUUUCUCGAUAUCAUAUUAAUCUUU
B41: Ib_S2_P5E.1_K5.1_C5.1_H5.1_[T3G]_[A4T]_A5.1_F5.1_T5.1 (ssRNA)
RNA: UUUGAUUAAUAUGAUAUCGUUCUUUCUUGGUUUAUUAUUCUUUCUCGAUAUCAUAUUAAUCUUU
B42: Ib_S2_P5E.1_K5.1_C5.1_H5.1_[A4G]_A5.1_[T5C]_F5.1_T5.1 (ssRNA)
RNA: UUUGAUUAAUAUGAUAUCGUUCUUUCUUGUGCUAUUAUUCUUUCUCGAUAUCAUAUUAAUCUUU
B43: Ib_S2_P5E.1_K5.1_C5.1_H5.1_[T1C]_[A4T]_A5.1_F5.1_T5.1 (ssRNA)
RNA: UUUGAUUAAUAUGAUAUCGUUCUUUCUCGUUUUAUUAUUCUUUCUCGAUAUCAUAUUAAUCUUU
B44: Ib_S2_P5E.1_K5.1_C5.1_H5.1_[T3C]_[A4T]_A5.1_F5.1_T5.1 (ssRNA)
RNA: UUUGAUUAAUAUGAUAUCGUUCUUUCUUGCUUUAUUAUUCUUUCUCGAUAUCAUAUUAAUCUUU
B45: Ib_S2_P5E.1_K5.1_C5.1_H5.1_[A4C]_A5.1_[T5G]_F5.1_T5.1 (ssRNA)
RNA: UUUGAUUAAUAUGAUAUCGUUCUUUCUUGUCGUAUUAUUCUUUCUCGAUAUCAUAUUAAUCUUU

Target: T1, PUF4 RNA-binding domain
Assay: Mg; RNA-MaP; 20 mM Na-HEPES pH 7.4, 30 mM KOAc, 0.75 mM MgCl2, 0.1% Tween-20, 5% glycerol, 0.1 mg/mL BSA, 2 mM DTT; 25 C; 0.0125-409.6 nM protein
Settings: tags: N-His6-TEV cleaved; C-SNAP kept, Cy3B-labelled; label: tethered on chip by stalled RNA polymerase

Binder | Kd [nM]
B1 | 1120
B2 | > 2300
B3 | 1020
B4 | > 2300
B5 | 2160
B6 | 353
B7 | > 2300
B8 | 1490
B9 | 28.1
B10 | > 2300
B11 | 1970
B12 | > 2300
B13 | 676
B14 | 5.71
B15 | 258
B16 | 11
B17 | 870
B18 | 531
B19 | 1610
B20 | 6.64
B21 | 1680
B22 | > 2300
B23 | > 2300

Binder | Kd [nM]
B24 | 1540
B25 | 1600
B26 | 22.6
B27 | 11.9
B28 | > 2300
B29 | 909
B30 | 8.03
B31 | > 2300
B32 | 39.1
B33 | 7.7
B34 | 8.06
B35 | 331
B36 | 276
B37 | 2030
B38 | 810
B39 | 1400
B40 | 522
B41 | 965
B42 | 9.3
B43 | 836
B44 | 930
B45 | 40
